Test results taken from US20250042994A1 (HAINAN SIMCERE ZAIMING PHARMACEUTICAL, published 2025).

Experiments:
[1] = target: T1, human CD19 on Raji cells (human, UniProt P15391 20-556); assay: FACS on Raji cells
T1 construct: whole, on cells
T1 sequence (looked up): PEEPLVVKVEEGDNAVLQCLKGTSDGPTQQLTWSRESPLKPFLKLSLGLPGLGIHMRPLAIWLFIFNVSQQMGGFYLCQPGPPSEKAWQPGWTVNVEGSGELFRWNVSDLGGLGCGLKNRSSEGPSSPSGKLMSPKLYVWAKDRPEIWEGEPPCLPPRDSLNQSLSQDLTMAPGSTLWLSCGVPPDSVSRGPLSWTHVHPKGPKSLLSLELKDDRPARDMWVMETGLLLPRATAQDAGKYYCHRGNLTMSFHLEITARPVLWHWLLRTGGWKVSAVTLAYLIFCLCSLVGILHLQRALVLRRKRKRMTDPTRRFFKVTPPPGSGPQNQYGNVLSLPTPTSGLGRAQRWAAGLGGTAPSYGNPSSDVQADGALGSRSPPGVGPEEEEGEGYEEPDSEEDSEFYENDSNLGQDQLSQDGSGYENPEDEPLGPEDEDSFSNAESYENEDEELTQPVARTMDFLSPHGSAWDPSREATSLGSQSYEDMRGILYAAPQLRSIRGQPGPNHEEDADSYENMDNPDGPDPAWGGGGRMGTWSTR

[2] = target: T2, human CD19 on CHO-K1-human CD19 cells (human, UniProt P15391 20-556); assay: FACS on CHO-K1-human CD19 cells
T2 construct: whole, on cells; also called CHO-K1-human CD19-2C8
T2 sequence (looked up): T1 sequence (looked up)

[3] = target: T3, monkey CD19 protein (monkey); assay: ELISA, coated monkey CD19 protein
T3 construct: also called monkey CD19-His protein
Experimental: (§1) Human CD19-his protein (purchased from ACROBiosystems, catalog number: CD9-H52H2) was diluted with PBS to a final concentration of 4 μg/mL, and then added to a 96-well ELISA plate at 100 μl/well. The plate was sealed with a plastic film and incubated overnight at 4° C., the plate was washed 2 times with PBS the next day, and then a blocking solution [PBS+2% (w/w) BSA] was added for blocking at room temperature for 2 h. The blocking solution was poured off, and 100 nM gradiently diluted CD19 chimeric antibody or control antibody was added at 50 μl/well. After incubation at 37° C. for 2 h, the plate was washed 3 times with PBS. […] TMB substrate was added at 50 μl/well, and incubated at room temperature for 10 min, and then a stop solution (1.0 N HCl) was added at 50 μl/well. The OD450 nm values were read by an ELISA microplate reader (Multimode Plate Reader, EnSight, purchased from Perkin Elmer).
(§2) In order to detect the species cross-binding activity of the chimeric antibodies, an ELISA plate was coated with commercial murine CD19 (ACROBiosystems, catalog number: 50510-M08H) and monkey CD19 (ACROBiosystems, catalog number: 90051-C08H), respectively, and the ELISA detection was performed according to the method in example 5.1.

[4] = target: T4, monkey CD19 on HEK293T-monkey CD19 cells (monkey); assay: FACS on HEK293T-monkey CD19 cells
T4 construct: whole, on cells
Procedure, shortened: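 Antibody binding was read as MFI by flow cytometry and EC50 was taken from curve fitting. Before that, cells at 2×10⁶ cells/ml in PBS with 2% (w/w) BSA were exposed to samples for 2 h on ice and washed. Parental HEK293T cells were tested the same way.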

[5] = target: T5, cynomolgus monkey CD19 on peripheral blood B cells (cynomolgus monkey (Macaca fascicularis), UniProt A0A2K5W8L9 20-557); assay: FACS, cynomolgus PBMC, CD20+ B cells
T5 construct: whole, on cells; also called cynomolgus monkey B cells
T5 sequence: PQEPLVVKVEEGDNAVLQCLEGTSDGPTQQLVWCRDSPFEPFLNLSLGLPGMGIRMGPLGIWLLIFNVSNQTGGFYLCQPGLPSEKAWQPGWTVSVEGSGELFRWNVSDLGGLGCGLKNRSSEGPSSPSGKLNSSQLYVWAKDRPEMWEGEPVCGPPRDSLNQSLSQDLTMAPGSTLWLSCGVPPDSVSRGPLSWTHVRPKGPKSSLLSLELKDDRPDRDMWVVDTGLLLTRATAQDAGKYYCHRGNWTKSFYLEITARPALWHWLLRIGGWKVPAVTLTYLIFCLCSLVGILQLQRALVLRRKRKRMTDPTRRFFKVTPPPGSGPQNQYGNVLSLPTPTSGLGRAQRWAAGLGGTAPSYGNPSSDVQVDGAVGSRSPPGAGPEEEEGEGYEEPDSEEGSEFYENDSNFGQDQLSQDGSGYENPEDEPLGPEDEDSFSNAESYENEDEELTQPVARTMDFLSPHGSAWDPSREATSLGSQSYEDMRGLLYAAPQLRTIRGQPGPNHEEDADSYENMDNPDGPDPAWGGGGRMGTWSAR

[6] = target: T3, monkey CD19 protein; assay: ELISA on coated monkey CD19-His
Experimental: as §1, §2

[7] = target: T6, human CD19 exon1-3-His tag protein (human, UniProt P15391 20-186, limits assumed); assay: ELISA on coated human CD19 exon 1-3-His
T6 construct: membrane-distal part of the extracellular region, made in HEK293E cells; not shown: His tag
T6 sequence (looked up): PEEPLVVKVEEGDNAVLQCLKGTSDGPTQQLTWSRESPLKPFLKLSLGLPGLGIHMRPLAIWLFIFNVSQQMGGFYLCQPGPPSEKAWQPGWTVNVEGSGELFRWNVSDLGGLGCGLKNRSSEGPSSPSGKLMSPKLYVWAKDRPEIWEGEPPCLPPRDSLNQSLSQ

[8] = target: T7, monkey CD19-His protein (monkey); assay: SPR Biacore, method of example 7.1, monkey CD19-His
T7 construct: bought protein; also called monkey CD19 protein
Experimental: A sample buffer and a running buffer were HBS-EP+ (10 mM HEPES, 150 mM NaCl, 3 mM EDTA and 0.05% surfactant P20) (GE Healthcare; BR-1006-69). The flow-through cell was set to 25° C. The sample block was set to 16° C. Both were pretreated with the running buffer. In each cycle, an antibody to be detected was first captured with a Protein A chip, and then a single concentration of CD19 antigen protein was injected. The binding and dissociation processes of the antibody and the antigen protein were recorded, and finally Glycine pH 1.5 (GE Healthcare; BR-1003-54) was used to complete chip regeneration. The binding was measured by injecting different concentrations of recombinant human CD19-His proteins in a solution for 240 s with a flow rate of 30 μl/min. The concentration started from 200 nM (see the detailed results for the actual concentration in the test) and was diluted at 1:1, making a total of 5 concentrations. The dissociation phase was monitored for up to 600 s and was triggered by switching from sample solution to running buffer. The surface was regenerated by washing with a 10 mM glycine solution (pH 1.5) for 30 s at a flow rate of 30 μl/min. Bulk refractive index difference was corrected by subtracting the response obtained from the goat anti-human Fc surface. Blank injection was also subtracted (=double reference). For calculation of apparent KD and other kinetic parameters, Langmuir 1:1 model was used.
According to the method in example 7.1, the affinity of the chimeric antibodies to monkey CD19 (ACROBiosystems, catalog number: 90051-C08H) protein was determined.

[9] = target: T8, Human CD19-his protein (human, UniProt P15391 20-291); assay: SPR Biacore, Ab captured on Protein A, CD19-His analyte
T8 construct: bought protein; also called recombinant human CD19-His; CD19 full-length protein; not shown: His tag
T8 sequence (looked up): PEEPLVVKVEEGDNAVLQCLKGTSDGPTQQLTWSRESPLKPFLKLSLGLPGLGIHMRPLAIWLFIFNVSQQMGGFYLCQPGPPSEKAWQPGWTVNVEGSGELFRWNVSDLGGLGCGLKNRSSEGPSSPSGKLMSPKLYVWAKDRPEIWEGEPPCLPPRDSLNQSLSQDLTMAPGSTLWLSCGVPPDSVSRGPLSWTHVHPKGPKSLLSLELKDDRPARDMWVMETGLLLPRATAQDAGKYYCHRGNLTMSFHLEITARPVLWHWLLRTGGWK
Procedure, shortened: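 Apparent KD came from a Langmuir 1:1 fit of double-referenced sensorgrams. Recombinant human CD19-His analyte (top 200 nM, 1:1 serial dilution, 5 concentrations) flowed over Protein A-captured antibody for 240 s at 30 μl/min, then buffer for up to 600 s. Running buffer HBS-EP+ at 25 °C; regeneration with 10 mM glycine pH 1.5.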

B1: F5.11.2 (antibody, human IgG1, V domains shown)
VH: EVQLVESGGDLVKPGGSLKLSCAASGFTFSSYGMSWVRQTPDKRLEWVATISHGGSYTHYPDSVKGRFTISRDNAKNTLYLQMNSLKSEDTAMYYCVRLPITTVEAPYFFDYWGQGTTLTVSS
VL: DIQMTQTTSSLSASLGDRVTISCRASQDIRNYLNWYQQKPDGTVKLLIYYTSILHSGVPSRFSGSGSGTDYSLTINNLEQEDVATYFCQQGNTLYTFGGGTEVELR
notes: human-murine chimeric antibody, human IgG1
EC50 [1]: 23.4 nM
Maximum mean fluorescence intensity [1]: 16600
EC50 [2]: 14.7 nM
Maximum mean fluorescence intensity [2]: 46600
OD450 at 0.0001 nM [3]: 0.06 OD450
OD450 at 0.001 nM [3]: 0.06 OD450
OD450 at 0.01 nM [3]: 0.06 OD450
OD450 at 0.10 nM [3]: 0.12 OD450
OD450 at 1.00 nM [3]: 0.71 OD450
OD450 at 10 nM [3]: 1.25 OD450
OD450 at 100 nM [3]: 1.16 OD450
EC50 [4]: 13 nM
Maximum mean fluorescence intensity [4]: 80600
Proportion of chimeric antibody positive cells to B cells (%) at 1 nM [5]: 12%
Proportion of chimeric antibody positive cells to B cells (%) at 10 nM [5]: 34%
Proportion of chimeric antibody positive cells to B cells (%) at 100 nM [5]: 76%
EC50 (read off the curve) [6]: ~0.8 nM

B2: F3.118.14 (antibody, human IgG1, V domains shown)
VH: QVQLQQSGAELVRPGASVTLSCKASGYTFPDYEIHWVKQTPVHGLEWIGAIDPETGGIGYNQKFTGKAMLTADKSSSTAYMELRSLTSEDSAVYFCTRNYGSRWGQGSTLTVSS
VL: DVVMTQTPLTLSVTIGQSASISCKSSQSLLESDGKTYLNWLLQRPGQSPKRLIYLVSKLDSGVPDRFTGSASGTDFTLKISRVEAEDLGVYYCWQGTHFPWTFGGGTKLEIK
notes: as for B1
EC50 [1]: 8.38 nM
Maximum mean fluorescence intensity [1]: 25900
EC50 [2]: 18 nM
Maximum mean fluorescence intensity [2]: 3380
OD450 at 0.0001 nM [3]: 0.07 OD450
OD450 at 0.001 nM [3]: 0.1 OD450
OD450 at 0.01 nM [3]: 0.24 OD450
OD450 at 0.10 nM [3]: 1.11 OD450
OD450 at 1.00 nM [3]: 2.05 OD450
OD450 at 10 nM [3]: 2.4 OD450
OD450 at 100 nM [3]: 2.75 OD450
EC50 [4]: 9.64 nM
Maximum mean fluorescence intensity [4]: 156000
Proportion of chimeric antibody positive cells to B cells (%) at 1 nM [5]: 6%
Proportion of chimeric antibody positive cells to B cells (%) at 10 nM [5]: 25%
Proportion of chimeric antibody positive cells to B cells (%) at 100 nM [5]: 79%
EC50 (read off the curve) [6]: ~0.2 nM

B3: F3.77.6 (antibody, human IgG1, V domains shown)
VH: EFQLQQSGPELVKPGASVKISCKASGYSFTDYNMNWVKQSNGKSLEWIGTINPNYITSYNQKFKGKATLTVDQSSSTAYMQLNSLTSEDSAVYYCAGDYKGYWGQGTTLTVSS
VL: not shown
notes: as for B1
EC50 [1]: 1.62 nM
Maximum mean fluorescence intensity [1]: 27400
EC50 [2]: 3.13 nM
Maximum mean fluorescence intensity [2]: 4990
OD450 at 0.0001 nM [3]: 0.07 OD450
OD450 at 0.001 nM [3]: 0.11 OD450
OD450 at 0.01 nM [3]: 0.38 OD450
OD450 at 0.10 nM [3]: 1.48 OD450
OD450 at 1.00 nM [3]: 2.27 OD450
OD450 at 10 nM [3]: 2.51 OD450
OD450 at 100 nM [3]: 2.49 OD450
EC50 [4]: 6.45 nM
Maximum mean fluorescence intensity [4]: 179000
Proportion of chimeric antibody positive cells to B cells (%) at 1 nM [5]: 4%
Proportion of chimeric antibody positive cells to B cells (%) at 10 nM [5]: 18%
Proportion of chimeric antibody positive cells to B cells (%) at 100 nM [5]: 56%
EC50 (read off the curve) [6]: ~0.07 nM

B4: F3.77.6 (antibody, human IgG1, V domains shown)
VH: B3 VH
VL: not shown
notes: human-murine chimeric antibody, human IgG1 constant
EC50 (read off the curve) [7]: ~0.1 nM
Kd [8]: 0.00759 nM
koff [8]: 1.4e-07 s⁻¹
kon [8]: 18400 M⁻¹ s⁻¹
Kd [9]: 2 nM
koff [9]: 0.000169 s⁻¹
kon [9]: 84400 M⁻¹ s⁻¹
